The record followed here is publication PMC4506093.

Test [1] addresses highly purified 26S proteasome, extracted from transformed HEK cells.
The target is the same in test [2]. This is another data set of the same source.

The substance “recombinant IDE expressed in Spodoptera frugiperda (from UniProt P35559 1-1019) (enzyme)” gave an inhibition of the caspase-like activity (50 micromol/L Z-LLE-AMC, after subtracting IDE's own cleavage) of 1 nanomol/L 26S proteasome by IDE up to 50 nanomol/L at 37°C; value at 50 nanomol/L IDE in test [1] of 60%. Also, in test [2], the inhibition of the chymotryptic-like activity (50 micromol/L Suc-LLVY-AMC) of 1 nanomol/L 26S proteasome by IDE from 1 nanomol/L to 50 nanomol/L at 37°C; value at 50 nanomol/L IDE was 55% and the inhibition of the tryptic-like activity (50 micromol/L Boc-LLR-AMC) of 1 nanomol/L 26S proteasome by IDE from 1 nanomol/L to 50 nanomol/L at 37°C; value at 50 nanomol/L IDE lay within 65 to 70%.
